Results from US20150246949A1, “Desmoglein 2 (DSG2) Binding Proteins and Uses Therefor” (UNIVERSITY OF WASHINGTON THROUGH ITS CENTER FOR …, priority 2012, published 2015).
Residue numbers refer to the chain shown, from its start. In names and notes the source's numbering stands. Entries after “also recorded” stand apart in the source; their conditions may differ.

T1: Recombinant human DSG2 protein (Leinco Technologies) (human, UniProt Q14126 50-609)
T1 construct: also called soluble DSG2; soluble recombinant DSG2
T1 sequence: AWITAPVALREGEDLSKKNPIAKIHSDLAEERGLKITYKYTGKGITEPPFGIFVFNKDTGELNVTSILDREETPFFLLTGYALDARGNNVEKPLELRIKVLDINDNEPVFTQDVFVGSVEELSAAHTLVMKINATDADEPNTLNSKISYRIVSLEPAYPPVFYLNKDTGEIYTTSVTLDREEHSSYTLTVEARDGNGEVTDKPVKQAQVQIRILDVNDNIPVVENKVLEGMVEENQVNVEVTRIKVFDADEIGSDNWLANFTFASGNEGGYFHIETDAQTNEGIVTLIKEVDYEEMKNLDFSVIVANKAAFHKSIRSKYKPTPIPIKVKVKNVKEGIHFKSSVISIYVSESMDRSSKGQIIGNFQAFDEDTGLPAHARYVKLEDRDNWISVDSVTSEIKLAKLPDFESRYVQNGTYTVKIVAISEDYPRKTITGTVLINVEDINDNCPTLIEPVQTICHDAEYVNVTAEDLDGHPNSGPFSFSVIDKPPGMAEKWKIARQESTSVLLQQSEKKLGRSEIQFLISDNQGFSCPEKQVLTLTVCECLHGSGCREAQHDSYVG

B1: N186D (protein)
chain: MKVSALKEKVSALKEKVSALKEKVSALKEKVSALKEGSGGGSGGGSGGGSNSIALKNNTLWTGPKPEANCIIEYGKQNPDSKLTLILVKNGGIVNGYVTLMGASDYVNTLFKDKNVSINVELYFDATGHILPDSSSLKTDLELKYKQTADFSARGFMPSTTAYPFVLPNAGTHNENYIFGQCYYKASDGALFPLEVTVMLNKRLPDSRTSYVMTFLWSLNAGLAPETTQATLITSPFTFSYIREDD
B2: E299V (protein)
chain: B1 chain with D113N, E226V
B3: JO-2: affinity enhanced version of JO-1; printed Y293D, Kd fits V239D; b41 links JO-2 to K217E/F224S (protein)
chain: B1 chain with D113N, V166D
B4: wt Ad3 fiber knob without dimerization domain (ligand)
chain: NKLCSKLGNGLTFDSSNSIALKNNTLWTGPKPEANCIIEYGKQNPDSKLTLILVKNGGIVNGYVTLMGASDYVNTLFKNKNVSINVELYFDATGHILPDSSSLKTDLELKYKQTADFSARGFMPSTTAYPFVLPNAGTHNENYIFGQCYYKASDGALFPLEVTVMLNKRLPDSRTSYVMTFLWSLNAGLAPETTQATLITSPFTFSYIREDD
notes: range 108-319; also called wt Ad3knob/noDD; wt Ad3 knob (noDD); not shown: N-terminal 6-His tag of pQE30 and the Gly/Ser linker encoded by primer P1

Assays:
[1] = tested on: polarized colon cancer T84 cells; assay: Transepithelial electrical resistance (TEER) permeability assay; format: cell-based; conditions: for Effect on TEER: 5 μg dimeric Ad3 fiber knob added 1 hour to apical chamber
Protocol: (§1) FIG. 5. Correlation of reduced DSG2 binding with the ability to open epithelial junctions. A) Transepithelial electrical resistance (TEER) measured on polarized colon cancer T84 cells. Cells were cultured in transwell chambers until the TEER was constant, i.e. tight junctions had formed. A total of 5 μg of dimeric Ad3 fiber knobs in PBS was then added for 1 hour to the apical chamber. TEER was measured at the indicated time points. N=6. For time points 1.5 and 4 hours the difference between JO-1 vs D261N and N186D was significant (p<0.01). The arrows indicate the addition and removal of Ad3 fiber knobs. B) Enhancement of irinotecan therapy. A total of 4×10^6 A549 cells were injected subcutaneously into CB17-SCID/beige mice. Once the tumor reached a volume of ˜100 mm^3 (day 15 after implantation), the mice were injected intravenously with 2 mg/kg JO-1, E299V, N186D, or PBS, followed by an intravenous injection of irinotecan (37.5 mg/kg) one hour later. The treatment was repeated on day 25. N=5. […] The difference between “irinotecan” vs “JO-1+irinotecan” was significant (p<0.01) from day 20 on.
FIG. 9. Analysis of dimeric Ad3 fiber knob mutants with increased affinity to DSG2. A) Competition of Ad3-GFP virus infection on HeLa cells with dimeric affinity-enhanced mutant Y250F and JO-1 (dimeric wt Ad3 fiber knob). The experimental setting is as described for FIG. 3C. left panel: percentage of GFP positive cells. Right panel: mean fluorescence intensity. N=3. The standard deviation was less than 10%. B) Competition of Ad3-GFP virus infection on HeLa cells by Ad3 knob mutants with enhanced DSG2 binding but without dimerization domain. 1.5×10^5 HeLa cells were seeded into 24 well plates. Cells were incubated with the Ad3 knob mutants at the increasing concentrations for one hour at room temperature. 100 pfu/cell of Ad3GFP virus were then added and GFP expression was analyzed 18 hours later. C) TEER on colon cancer T84 cells. The experimental setting was the same as for FIG. 5A. The TEER at 4 hours is shown. N=3.
A total of 5×10^5 T84 cells were seeded in 12 mm transwell inserts (PET membrane, with 0.4 μm pore size (Corning, N.Y.) and cultured for >14 days until transepithelial electrical resistance (TEER) was stable. Culture medium was changed every 2-3 days. The cells were exposed to DSG2 ligands (20 μg/ml) in adhesion medium (DMEM, 1% FBS, 2 mM MgCl2, 20 mM HEPES) for 15 min at room temperature and TEER was measured and calculated as described elsewhere (39).

A549 xenograft tumors = assay: Enhancement of irinotecan therapy in A549 xenograft tumors; format: in vivo, CB17-SCID/beige mice; conditions: 2 mg/kg i.v. one hour before irinotecan 37.5 mg/kg i.v.; days 15 and 25; N=5
Protocol: as §1
FIG. 10. Combination of affinity-enhanced JO-1 versions with chemotherapy. A) Enhancement of irinotecan (I) therapy. The experimental setting was the same as in FIG. 5B. […] N=5. […] Mammary fat pad tumors were established from primary ovarian cancer ovc316 cells. Treatment was started when tumors reached a volume of 100 mm^3 Mice were injected intravenously with 2 mg/kg JO-1 or with 0.5 mg/kg JO-4, followed by an intravenous injection of PEGylated liposomal doxorubicin (PLD) (1 mg/kg) one hour later. Treatment was repeated weekly. […] A total of 4×10^6 TNBC MDA-MB-231 cells were injected into the mammary fat pad of CB17 SCID-beige mice. JO-4 (2 mg/kg) was intravenously injected 1 hour before the application of cetuximab (C) (10 mg/kg, i.p.) and nab-paclitaxel (nab-P) (5 mg/kg, i.v). Treatment was given weekly. N=10 P<0.01 at day 25 for nab-P+C vs JO-4+nab-P+C.
A549, MDA-MB-231, and ovc316 xenograft tumors were established by injection of the corresponding tumor cells into the mammary fat pad (1:1 with Matrigel) of CB17 mice. TC1-DSG2 tumors were established by subcutaneous injection of TC1-DSG2 cells into DSG2 transgenic mice. JO-0, JO-1, JO-2, or JO-4 were intravenously injected one hour before the application of chemotherapeutic drugs: Irinotecan/Camptosar™ (Pfizer Inc., Groton, Conn.), PEGylated liposomal doxorubicin/Lipodox™ (Sun Pharmaceuticals IN, India), cetuximab/Erbitux™ (ImClone, Somerville, N.J.), nanoparticle albumin conjugated paclitaxel/Abraxane™ (Abraxis Biosciences, Summit N.J.). Tumor volumes were measured three times a week. Each treatment group consisted of a minimum of 5 mice.

[2] = biological target: T1, Recombinant human DSG2 protein (Leinco …); assay: SPR (BIAcore 3000), DSG2 immobilised on CM4 chip, knob injected
[3] = biological target: T1, Recombinant human DSG2 protein (Leinco …); assay: SPR (BIAcore 3000), DSG2 immobilised on the sensor chip, knobs injected at 2.5 to 10 µg/ml, BIAeval

Row | Molecule | Effect on TEER [1] | Enhancement of irinotecan therapy (A549 xenograft tumors) | TEER compared to JO-1 ([1]; dimeric affinity-enhanced mutants, TEER at 4 hours, N=3) | Kd [2] | Kd [3] | koff [3] | kon [3]
1 | B1 | intermediate effects | not significant | – | – | – | – | –
2 | B2 | intermediate effects | not significant | – | – | – | – | –
3 | B3 | – | increased irinotecan therapy significantly more than JO-1; also recorded: significant from day 20 on | significantly higher | – | – | – | –
4 | B4 | – | – | – | 10 µM | 10.1 µM | 0.00572 s⁻¹ | 527 M⁻¹ s⁻¹
